Measurements published in publication PMC11257031 (Archives of biochemistry and biophysics, 2023).

Biological target: the molecule itself
Assay: SEC

B1: Zymomonas mobilis pyruvate kinase (enzyme, UniProt O86020 1-475, looked up)
chain: MTEGLFPRGRKVRVVSTLGPASSTAEQIRDRFLAGADVFRINMSHGTHDEKKVIVDNIRALEKEFNRPTTILFDLQGPKLRVGDFKEGKVQLKEGQTFTFDQDPTLGDETRVNLPHPEIFKALDKGHRLLLDDGKIVVRCVESSPTKIVTRVEVPGPLSDHKGFNVPDVVIPLAALTPKDRKDLDFALKEKADWVALSFVQRVEDVIEAKELIKGRAPLLVKLEKPAAIENLESILAATDAVMVARGDLGVECLPESVPPTQKRIVERSRQLGKPVVVATAMLESMIKAPAPTRAEVSDVANAIYEGADGIMLSAESAAGDWPHEAVNMMHRIASYVENAPGYIERVRFTPTPAEPTTVDALAENASKTAETVGAKAIIVFTETGKTAQRVSRARPVAPILSLTPDAEVARRLGLVWGAQPVQVSTVKTLDEAKKLAAETAKKYGFAKAGDKLVVVAGEPFGKAGTTNIVDVIEA
- stoichiometry N: 2
